Test results: patent publication CN116143922A (BEIJING DONGFANG BIOTECH CO LTD, dated 2023)

Assays:
THP-1细胞表面的LILRB4 [1] = target: T1, THP-1细胞表面的LILRB4 (human, UniProt Q8NHJ6 22-448); experiment: cell-based or functional assay
THP-1细胞表面的LILRB4 [2] = target: T1, THP-1细胞表面的LILRB4; experiment: flow cytometry on THP-1 cells, FITC goat anti-mouse IgG detection
LILRB4抗原 (人LILRB4蛋白胞外段) [3] = target: T2, LILRB4抗原 (人LILRB4蛋白胞外段) (human, UniProt Q8NHJ6 22-259); experiment: ELISA, coated LILRB4 100 ng/well, goat anti-mouse IgG-HRP detection
T2 construct: extracellular domain

THP-1细胞表面的LILRB4 [4] = target: T1, THP-1细胞表面的LILRB4; experiment: flow cytometry competition on THP-1 cells; MD-Ⅰ titrated, competitor FITC-labelled ApoE at 0.4 μg/mL
LILRA6 [5] = target: T3, LILRA6 (UniProt Q6PI73 24-447, limits assumed); experiment: ELISA, coated LILR family protein 100 ng/well, single antibody concentration
T3 sequence (Q6PI73 24-447 limits assumed): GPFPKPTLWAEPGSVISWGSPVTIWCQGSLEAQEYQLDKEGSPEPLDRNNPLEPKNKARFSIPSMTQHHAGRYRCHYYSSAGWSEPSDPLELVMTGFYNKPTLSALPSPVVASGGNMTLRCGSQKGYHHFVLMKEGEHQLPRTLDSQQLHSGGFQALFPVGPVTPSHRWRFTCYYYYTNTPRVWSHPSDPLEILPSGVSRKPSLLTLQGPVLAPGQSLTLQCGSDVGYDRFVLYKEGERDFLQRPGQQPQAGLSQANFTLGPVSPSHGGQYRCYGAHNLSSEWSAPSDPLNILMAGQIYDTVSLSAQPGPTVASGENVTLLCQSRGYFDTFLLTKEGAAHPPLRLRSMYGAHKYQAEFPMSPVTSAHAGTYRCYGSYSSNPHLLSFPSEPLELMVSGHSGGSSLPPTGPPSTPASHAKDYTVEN

LILRA5 [6] = target: T4, LILRA5 (UniProt A6NI73 42-268, limits assumed); experiment: as above
T4 sequence (A6NI73 42-268 limits assumed): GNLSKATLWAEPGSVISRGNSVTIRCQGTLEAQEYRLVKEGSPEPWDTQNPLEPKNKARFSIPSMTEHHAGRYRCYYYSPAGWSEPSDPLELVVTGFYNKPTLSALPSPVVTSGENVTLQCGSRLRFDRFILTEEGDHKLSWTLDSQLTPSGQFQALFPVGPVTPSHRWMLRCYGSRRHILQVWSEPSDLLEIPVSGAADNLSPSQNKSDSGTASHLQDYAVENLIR

LILRB5 [7] = target: T5, LILRB5 (UniProt O75023 24-458, limits assumed); experiment: as above
T5 sequence (O75023 24-458 limits assumed): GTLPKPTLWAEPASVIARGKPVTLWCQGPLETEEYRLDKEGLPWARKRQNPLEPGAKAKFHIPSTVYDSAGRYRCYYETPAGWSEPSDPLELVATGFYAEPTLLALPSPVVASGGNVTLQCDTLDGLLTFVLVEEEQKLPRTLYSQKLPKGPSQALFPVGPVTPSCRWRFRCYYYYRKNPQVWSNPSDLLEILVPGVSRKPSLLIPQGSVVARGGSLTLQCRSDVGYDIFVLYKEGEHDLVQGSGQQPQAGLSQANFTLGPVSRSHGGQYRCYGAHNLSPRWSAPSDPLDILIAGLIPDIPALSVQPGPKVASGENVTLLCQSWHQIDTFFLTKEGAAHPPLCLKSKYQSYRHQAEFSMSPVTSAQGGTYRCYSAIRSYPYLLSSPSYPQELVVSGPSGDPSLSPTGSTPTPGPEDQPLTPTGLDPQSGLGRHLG

LILRB1 [8] = target: T6, LILRB1 (UniProt Q8NHL6 24-461, limits assumed); experiment: as above
T6 sequence (Q8NHL6 24-461 limits assumed): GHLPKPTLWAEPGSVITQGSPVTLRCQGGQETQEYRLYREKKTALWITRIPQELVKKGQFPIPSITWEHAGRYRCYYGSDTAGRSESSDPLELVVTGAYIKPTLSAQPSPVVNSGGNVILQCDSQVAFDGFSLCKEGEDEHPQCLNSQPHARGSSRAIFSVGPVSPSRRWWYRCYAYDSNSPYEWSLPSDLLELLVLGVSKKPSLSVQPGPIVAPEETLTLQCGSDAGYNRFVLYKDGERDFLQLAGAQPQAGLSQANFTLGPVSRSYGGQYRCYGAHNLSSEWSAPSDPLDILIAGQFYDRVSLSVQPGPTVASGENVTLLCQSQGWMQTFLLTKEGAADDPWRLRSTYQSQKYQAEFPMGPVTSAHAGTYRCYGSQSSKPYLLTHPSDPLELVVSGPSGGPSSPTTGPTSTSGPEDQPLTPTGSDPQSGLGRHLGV

LILRA4 [9] = target: T7, LILRA4 (UniProt P59901 24-446, limits assumed); experiment: as above
T7 sequence (P59901 24-446 limits assumed): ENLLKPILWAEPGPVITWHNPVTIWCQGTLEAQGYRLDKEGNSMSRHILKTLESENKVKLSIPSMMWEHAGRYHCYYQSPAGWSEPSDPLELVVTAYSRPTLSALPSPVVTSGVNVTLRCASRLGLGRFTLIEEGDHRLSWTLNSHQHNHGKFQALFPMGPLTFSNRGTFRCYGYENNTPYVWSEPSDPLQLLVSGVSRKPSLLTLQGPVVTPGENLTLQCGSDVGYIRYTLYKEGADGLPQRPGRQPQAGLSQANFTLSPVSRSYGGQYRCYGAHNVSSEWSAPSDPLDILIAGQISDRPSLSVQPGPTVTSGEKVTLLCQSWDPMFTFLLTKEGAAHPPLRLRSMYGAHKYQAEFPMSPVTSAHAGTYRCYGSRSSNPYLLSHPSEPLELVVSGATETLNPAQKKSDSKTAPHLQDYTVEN

LILRB3 [10] = target: T8, LILRB3 (UniProt O75022 24-443, limits assumed); experiment: as above
T8 sequence (O75022 24-443 limits assumed): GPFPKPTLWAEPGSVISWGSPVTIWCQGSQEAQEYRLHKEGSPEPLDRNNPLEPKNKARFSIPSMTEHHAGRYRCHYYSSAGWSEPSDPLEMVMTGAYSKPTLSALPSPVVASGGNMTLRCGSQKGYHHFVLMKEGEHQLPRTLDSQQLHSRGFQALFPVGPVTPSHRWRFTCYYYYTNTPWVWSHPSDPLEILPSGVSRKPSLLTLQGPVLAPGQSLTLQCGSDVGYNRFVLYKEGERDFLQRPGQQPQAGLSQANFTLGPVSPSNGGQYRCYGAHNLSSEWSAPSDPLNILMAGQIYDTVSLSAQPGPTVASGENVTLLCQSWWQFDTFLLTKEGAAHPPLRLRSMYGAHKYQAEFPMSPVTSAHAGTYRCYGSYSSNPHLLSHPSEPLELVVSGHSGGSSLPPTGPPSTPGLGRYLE

LILRB2 [11] = target: T9, LILRB2 (UniProt Q8N423 22-460, limits assumed); experiment: as above
T9 sequence (Q8N423 22-460 limits assumed): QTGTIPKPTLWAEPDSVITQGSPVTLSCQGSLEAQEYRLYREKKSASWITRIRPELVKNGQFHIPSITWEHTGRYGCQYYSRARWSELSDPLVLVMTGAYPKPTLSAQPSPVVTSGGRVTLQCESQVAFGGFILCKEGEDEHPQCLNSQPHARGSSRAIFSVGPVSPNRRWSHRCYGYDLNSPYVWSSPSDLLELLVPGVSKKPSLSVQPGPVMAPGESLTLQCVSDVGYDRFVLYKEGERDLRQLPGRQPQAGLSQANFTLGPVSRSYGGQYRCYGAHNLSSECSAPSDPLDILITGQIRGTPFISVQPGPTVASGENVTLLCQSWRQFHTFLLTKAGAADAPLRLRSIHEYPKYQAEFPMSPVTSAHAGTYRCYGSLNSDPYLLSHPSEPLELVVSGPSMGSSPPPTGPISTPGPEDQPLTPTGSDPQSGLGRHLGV

LILRA3 [12] = target: T10, LILRA3 (UniProt Q8N6C8 24-439); experiment: as above
T10 sequence (Q8N6C8 24-439 limits assumed): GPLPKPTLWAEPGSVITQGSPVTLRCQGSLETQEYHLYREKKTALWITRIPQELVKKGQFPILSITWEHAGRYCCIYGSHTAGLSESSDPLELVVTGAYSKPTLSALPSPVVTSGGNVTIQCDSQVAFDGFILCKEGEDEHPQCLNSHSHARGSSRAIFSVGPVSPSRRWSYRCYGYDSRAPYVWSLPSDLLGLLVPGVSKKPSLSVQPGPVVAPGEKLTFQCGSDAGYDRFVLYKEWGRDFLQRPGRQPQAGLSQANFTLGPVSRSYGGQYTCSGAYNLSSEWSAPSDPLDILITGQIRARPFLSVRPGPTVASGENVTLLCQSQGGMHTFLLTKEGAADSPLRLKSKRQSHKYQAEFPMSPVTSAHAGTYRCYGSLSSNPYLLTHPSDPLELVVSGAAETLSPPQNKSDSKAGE

LILRA2 [13] = target: T11, LILRA2 (UniProt Q8N149 24-449, limits assumed); experiment: as above
T11 sequence (Q8N149 24-449 limits assumed): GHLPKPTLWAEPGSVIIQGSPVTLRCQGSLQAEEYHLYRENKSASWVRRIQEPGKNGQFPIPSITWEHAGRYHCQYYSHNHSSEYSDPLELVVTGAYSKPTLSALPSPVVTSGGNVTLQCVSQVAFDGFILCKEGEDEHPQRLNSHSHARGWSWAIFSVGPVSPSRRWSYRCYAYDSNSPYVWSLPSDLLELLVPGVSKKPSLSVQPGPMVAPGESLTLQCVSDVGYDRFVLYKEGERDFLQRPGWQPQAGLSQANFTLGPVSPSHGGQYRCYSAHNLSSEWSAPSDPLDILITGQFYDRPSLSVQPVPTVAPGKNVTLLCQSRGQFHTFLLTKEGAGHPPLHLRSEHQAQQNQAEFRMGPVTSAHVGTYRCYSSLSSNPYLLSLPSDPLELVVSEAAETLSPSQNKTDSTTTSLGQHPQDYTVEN

LILRA1 [14] = target: T12, LILRA1 (UniProt O75019 17-461, limits assumed); experiment: as above
T12 sequence (O75019 17-461 limits assumed): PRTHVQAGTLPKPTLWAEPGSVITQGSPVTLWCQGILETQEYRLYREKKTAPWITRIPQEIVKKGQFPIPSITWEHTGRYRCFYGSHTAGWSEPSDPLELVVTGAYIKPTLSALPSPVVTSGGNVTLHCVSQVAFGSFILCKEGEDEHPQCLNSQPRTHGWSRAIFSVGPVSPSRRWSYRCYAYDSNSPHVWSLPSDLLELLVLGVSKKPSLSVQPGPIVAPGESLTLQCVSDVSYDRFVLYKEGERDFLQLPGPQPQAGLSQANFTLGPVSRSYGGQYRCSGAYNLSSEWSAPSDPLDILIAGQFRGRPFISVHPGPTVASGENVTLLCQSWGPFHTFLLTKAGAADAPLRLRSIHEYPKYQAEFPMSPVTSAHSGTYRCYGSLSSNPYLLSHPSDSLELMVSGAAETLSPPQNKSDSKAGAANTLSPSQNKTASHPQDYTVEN

LILRA6 [15] = target: T3, LILRA6; experiment: ELISA, coated LILR family protein, antibody at 50 μg/mL
LILRA5 [16] = target: T4, LILRA5; experiment: as above
LILRB5 [17] = target: T5, LILRB5; experiment: as above
LILRB1 [18] = target: T6, LILRB1; experiment: as above
LILRA4 [19] = target: T7, LILRA4; experiment: as above
LILRB3 [20] = target: T8, LILRB3; experiment: as above
LILRB4抗原 (人LILRB4蛋白胞外段) [21] = target: T2, LILRB4抗原 (人LILRB4蛋白胞外段); experiment: as above
LILRB2 [22] = target: T9, LILRB2; experiment: as above
LILRA3 [23] = target: T10, LILRA3; experiment: as above
LILRA2 [24] = target: T11, LILRA2; experiment: as above
LILRA1 [25] = target: T12, LILRA1; experiment: as above

B1: 抗LILRB4单克隆抗体MD-Ⅰ (mouse IgG1 heavy chain constant region, mouse Ck light chain constant region) (antibody, V domains shown)
VH: EVQLQESGPQLVRPGTSVKLSCKASGYTFTNYWIHWVKQRPGQGLEWIGEINPTNGHTNYNEKFKSKATLTVDKSSSTAYMQLSSLTSEDSAVYYCARYTYDQDAMDYWGQGTSVTVSS
VL: DIVITQSTSSLSASLGDRVTISCRASQDISNYLNWYQQKPDGTVKLLIYYTSRLHSGVPSRFSGSGSGTDYSLTISNLEQEDIATYFCQQGNTLPPTFGGGTKLEIKA
notes: also called MD-I
Question: What does the source list for B1?
Answer: IC50 of inhibition of ARG1 secretion by THP-1 cells in the presence of ApoE (精氨酸酶活性检测) (THP-1细胞表面的LILRB4 [1]): 310 mg/L; EC50 (THP-1细胞表面的LILRB4 [2]): 5.09 mg/L; EC50 (LILRB4抗原 (人LILRB4蛋白胞外段) [3]): 0.221 mg/L; IC50 (THP-1细胞表面的LILRB4 [4]): 8.62 mg/L; binding result (LILRA6 [5]): no binding (tested: 50μg/mL); binding result (LILRA5 [6]): no binding (tested: 50μg/mL); binding result (LILRB5 [7]): no binding (tested: 50μg/mL); binding result (LILRB1 [8]): no binding (tested: 50μg/mL); binding result (LILRA4 [9]): no binding (tested: 50μg/mL); binding result (LILRB3 [10]): no binding (tested: 50μg/mL); binding result (LILRB2 [11]): no binding (tested: 50μg/mL); binding result (LILRA3 [12]): no binding (tested: 50μg/mL); binding result (LILRA2 [13]): no binding (tested: 50μg/mL); binding result (LILRA1 [14]): no binding (tested: 50μg/mL); OD 450nm/630nm (LILRA6 [15]): 0.045; OD 450nm/630nm (LILRA5 [16]): 0.078; OD 450nm/630nm (LILRB5 [17]): 0.056; OD 450nm/630nm (LILRB1 [18]): 0.047; OD 450nm/630nm (LILRA4 [19]): 0.156; OD 450nm/630nm (LILRB3 [20]): 0.015; OD 450nm/630nm (LILRB4抗原 (人LILRB4蛋白胞外段) [21]): 2.42; OD 450nm/630nm (LILRB2 [22]): 0.014; OD 450nm/630nm (LILRA3 [23]): 0.028; OD 450nm/630nm (LILRA2 [24]): 0.054; OD 450nm/630nm (LILRA1 [25]): 0.075
